Reference: patent US6174713A, “Candida cytoplasmic tryptophanyl-tRNA synthetase proteins, nucleic acids and strains comprising same” (Cubist Pharmaceuticals, Inc., priority 1997, dated 2001)

Experiments:
[1] = tested on: Nc1ncnc2c1ncn2[C@@H]1O[C@H](COP(=O)(O)OP(=O)(O)OP(=O)(O)O)[C@@H](O)[C@H]1O; assay: Aminoacylation (charging) assay, Km determination with purified recombinant TrpRS; type: biochemical, Candida albicans; settings: other: recombinant enzyme, ATP concentration range 0.19 to 6 mM, 25° C., pH 7.5
Protocol: (§1) The purified recombinant protein obtained after thrombin cleavage of the GST-fusion protein produced by JM109/pC^3 822 was used for further kinetic studies. Charging assays were based on the procedure of Shepard et al. (Proc. Natl. Acad. Sci. USA 89:9964-68 (1992)). Unless otherwise stated, a typical 50 μl reaction, carried out at 25° C., contained 1 mM ATP, 1 μM of [^3 H]Tryptophan (22.2 Ci/mmol), 90 μM crude tRNA from brewer's yeast (Boehringer Mannheim), 10 mM KF, 30 mM HEPES, 30 mM KCl pH 7.5, 5 mM MgCl2, and 10 mM DTT. Purified enzyme was diluted in 100 mM HEPES, pH 7.5, 20 mM DTT and 0.1 mg/ml BSA.
(§2) Reactions were started by the addition of enzyme to the reaction mixture preincubated at 25° C., with […] protein in the assay. At various time intervals, 10 μl of the reaction mix was quenched in a 96-well filter plate (Millipore, cat# MAFBNOB50) prefilled with 100 μl of cold 5% TCA. The liquid in the filter plate was drained by applying vacuum suction on the manifold. The plate was subsequently washed 2 times with 200 μl 5% TCA, 2 times with 100 μl double distilled H2 O with continuous vacuum suction, and once with 100 μl 95% EtOH. The plate was heat-dried under vacuum, 100 μl Microscint was added to each well, and the aminoacylated tRNA was quantitated by scintillation counting in a Topcount (Packard) scintillation counter. […]

[2] = molecular target: C. albicans cytoplasmic tryptophanyl-tRNA synthetase (recombinant, thrombin-cleaved GST fusion from pC3 822) (Candida albicans, UniProt Q5A3P4); assay: as above; type: biochemical; settings: read-out: Km for tryptophan; recombinant enzyme; crude yeast tRNA; 1 to 40 μM [3H]tryptophan; 25° C.
Chain of C. albicans cytoplasmic tryptophanyl-tRNA synthetase (recombinant, thrombin-cleaved GST fusion from pC3 822) (Q5A3P4 whole entry S271A, the tested form may be a part): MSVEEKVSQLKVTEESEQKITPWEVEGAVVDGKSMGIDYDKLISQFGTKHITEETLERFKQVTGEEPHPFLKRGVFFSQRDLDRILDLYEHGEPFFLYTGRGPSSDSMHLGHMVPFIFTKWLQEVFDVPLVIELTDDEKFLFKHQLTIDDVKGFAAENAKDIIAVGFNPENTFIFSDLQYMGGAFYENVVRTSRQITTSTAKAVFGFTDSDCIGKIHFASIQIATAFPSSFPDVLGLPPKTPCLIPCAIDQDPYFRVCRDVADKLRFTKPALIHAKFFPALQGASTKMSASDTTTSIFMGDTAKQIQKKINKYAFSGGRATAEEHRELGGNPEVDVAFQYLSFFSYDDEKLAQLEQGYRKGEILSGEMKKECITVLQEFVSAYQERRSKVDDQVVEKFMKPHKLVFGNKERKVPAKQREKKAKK
Protocol: as §1, §2

Question: “C. albicans cytoplasmic tryptophanyl-tRNA synthetase (recombinant, thrombin-cleaved GST fusion from pC3 822) (Candida albicans SC5314)” was tested. Which Km [1] did it give?
Answer: The Km was 1100 µM.

Question: With `N[C@@H](Cc1c[nH]c2ccccc12)C(=O)O` [tryptophan] as the molecule, how does the Km [2] read?
Answer: Its Km is 3 to 4 µM.
